Measurements reported in paper PMC6988089.

How the values were obtained:
[1] = target: TAMRA-labeled benzylated H3K9 peptide; assay: fluorescence polarisation
[2] = target: TAMRA-labeled H3K9me3 peptide; assay: fluorescence polarisation

Row | Substance | Kd [1] [µM] | Kd [2] [µM] | Kd (H3K9me2 peptide) [µM]
1 | CBX1 chromodomain F50A (from UniProt P83916 20-73) (domain or fragment) | 18.5 | – | –
2 | CBX3-F44G mutant (from UniProt Q13185 1-183) (natural protein) | 49 | > 1000 | –
3 | Y26F/F50G-CBX1 chromodomain (from UniProt P83916 22-73) (domain or fragment) | 5.5 | 80 | > 300
4 | wild-type CBX3 (from UniProt Q13185 1-183) (natural protein) | > 1000 | – | –
